Data taken from patent US6462173B1, “Inhibitors of phosphoserine and phosphothreonine-proline-specific isomerases” (Max-Planck-Gesellschaft zur Forderung der, priority 1997, dated 2002).

Tests used:
AAPF (peptide substrate) = tested on: T1, AAPF (peptide substrate)
T1 sequence: AAPF

AEPF-pNA = tested on: T2, AEPF-pNA
T2 sequence: AEPFNA

Question: Which PPIase activity (AAPF (peptide substrate)) does the source give for GST-Pin1^H59A here?
Answer: The PPIase activity of Pin1^H59A was barely detectable against either peptide substrate

Question: What about the PPIase activity (AEPF-pNA) of the same substance?
Answer: The PPIase activity of Pin1^H59A was barely detectable against either peptide substrate
